These are literature values, as cited in paper PMC6811625.

The data set addresses Im7 (Escherichia coli) (UniProt Q03708).

Sequence of Im7 (Escherichia coli) (Q03708 whole entry): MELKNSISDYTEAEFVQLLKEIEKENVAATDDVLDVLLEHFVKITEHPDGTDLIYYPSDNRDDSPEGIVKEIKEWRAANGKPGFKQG
Sequence of Spy (P77754 24-161): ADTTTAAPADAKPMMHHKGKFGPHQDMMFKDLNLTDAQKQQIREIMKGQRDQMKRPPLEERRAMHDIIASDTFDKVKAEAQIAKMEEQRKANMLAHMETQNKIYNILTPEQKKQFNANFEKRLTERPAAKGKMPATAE

On to Spy (from UniProt P77754), for which the Kd is 30 µM.

One may read the Kd as the constant that tells how readily two partners part at equilibrium.
